Experimental data as given in publication PMC4634933, “Development of a Novel PET Tracer [^18F]AlF-NOTA-C6 Targeting MMP2 for Tumor Imaging” (PLoS ONE, 2015).
Bridge positions count the residues as written; N and C are the ends. Peptide text beside a SMILES is read from it. * marks the point of attachment. NOTA = O=C(O)CN1CCN(CC(=O)O)CCN(CC(=O)*)CC1

Tests used:
gelatinase = tested on: gelatinase; design: method as in PMID 19424760; settings: cited from earlier work
[1] = type: physicochemical
Experimental: To examine in vitro stability, approximately 400 μL of [^18F]AlF-NOTA-C6 and 2 mL of physiological saline at room temperature, or 2 mL of human serum at 37°C, were mixed and incubated for 4 h. During the incubation, 200-μL samples were collected at 2 and 4 h. The samples were subsequently analyzed by radio-HPLC.

in vivo = experiment: in vivo; design: species or system mice; settings: female, BALB/c nude, mouse, in vivo, iv, 0.74 MBq, total radioactivity
Experimental: (§1) Tumor-bearing mice were prepared via a subcutaneous injection of cancer cells into the forelegs of female (SKOV3) or male (PC3) BALB/c nude mice (B&K Universal, Shanghai, China) at 6 weeks of age (body weight 18–20 g). When tumors were palpable, i.e., approximately 5 mm in diameter, the mice were used for biodistribution and PET imaging experiments. Biodistribution experiments were performed via intravenous administration of [^18F]AlF-NOTA-C6 (0.74 MBq) to mice bearing SKOV3 tumors. At 30, 60, and 120 min PI (n = 4 mice/timepoint), the mice were euthanized and the biological samples of interest (e.g., blood, tumor, muscle, lung, spleen, kidney, liver, and small intestine) were harvested and weighed. In the blocking experiments, the mice (n = 4) were pre-blocked with unlabeled C6 at 10 mg/kg body weight prior to the tracer injection; at 60 min PI of [^18F]AlF-NOTA-C6, the mice were euthanized as previously described. The radioactivity values of the tissues and injection standards were subsequently measured in a γ-counter. The samples were corrected for radioactive decay to calculate the percent of injected dose (ID) to grams of tissue (%ID/g) relative to a standard that represented the injected dose.

SKOV3 tumor-bearing mice = experiment: in vivo
Experimental: as §1

SKOV3 tumors = experiment: MicroPET imaging of SKOV3 tumor-bearing mice; type: in vivo; settings: 3.7 MBq via tail vein, non-blocked
Experimental: Tumor-bearing mice were prepared via a subcutaneous injection of cancer cells into the forelegs of female (SKOV3) or male (PC3) BALB/c nude mice (B&K Universal, Shanghai, China) at 6 weeks of age (body weight 18–20 g). When tumors were palpable, i.e., approximately 5 mm in diameter, the mice were used for biodistribution and PET imaging experiments. PET imaging was performed on 4 mice bearing SKOV3 tumors using a microPET scanner; prior to the tracer injection, 2 mice were pre-blocked with unlabeled C6 at 10 mg/kg body weight, and 2 mice were not pre-blocked. Pre-blocked and non-blocked mice were then administered 3.7 MBq of [^18F]AlF-NOTA-C6, via tail vein injection. At 30, 60, and 120 min post-injection (PI), the mice were anesthetized with 1–2% isoflurane, positioned supine, immobilized, and imaged. The scan time was 10 min. The images were reconstructed using the ordered subset expectation maximization method; no attenuation correction was used.

PC3 tumors = experiment: MicroPET imaging of PC3 tumor-bearing mice; type: in vivo; settings: 3.7 MBq via tail vein, greatest radioactivity concentration at 30 min PI

Compound: c(Lys-Ala-His-Trp-Gly-Phe-Thr-Leu-Asp)NH2 (sidechain bridge or staple) [C6]
- increase in gelatinase inhibition relative to CTT (gelatinase): 4 fold

Compound: CC(C)C[C@@H]1NC(=O)[C@H]([C@@H](C)O)NC(=O)[C@H](Cc2ccccc2)NC(=O)CNC(=O)[C@H](Cc2c[nH]c3ccccc23)NC(=O)[C@H](Cc2c[nH]cn2)NC(=O)[C@H](C)NC(=O)[C@@H](NC(=O)CN2CCN(CC(=O)O)CCN(CC(=O)O)CC2)CCCCNC(=O)C[C@@H](C(N)=O)NC1=O [[^18F]AlF-NOTA-C6] ({NOTA}-KAHWGFTLD-NH2; lactam 1-9)
- radioactive degradation products [1]: absence
- radioactivity in the form of [18F]AlF-NOTA-C6 ([1]; physiological saline, room temperature, 4 h incubation, radio-HPLC): > 95%
- tissue uptake at 0.5 h (in vivo; Fat uptake): 0.44 ± 0.08 %ID/g
- tissue uptake at 1 h (in vivo; Fat uptake): 0.18 ± 0.1 %ID/g
- tissue uptake at 2 h (in vivo; Fat uptake): 0.12 ± 0.07 %ID/g
- tissue uptake at 0.5 h (in vivo; Gut uptake): 0.47 ± 0.09 %ID/g
- tissue uptake at 1 h (in vivo; Gut uptake): 0.13 ± 0.07 %ID/g
- tissue uptake at 2 h (in vivo; Gut uptake): 0.12 ± 0.07 %ID/g
- tissue uptake at 0.5 h (in vivo; Kidney uptake): 7.14 ± 0.05 %ID/g
- tissue uptake at 1 h (in vivo; Kidney uptake): 4.55 ± 1.38 %ID/g
- tissue uptake at 2 h (in vivo; Kidney uptake): 4.72 ± 0.31 %ID/g
- tissue uptake at 0.5 h (in vivo; Muscle uptake): 0.57 ± 0.15 %ID/g
- tissue uptake at 1 h (in vivo; Muscle uptake): 0.08 ± 0.04 %ID/g
- tissue uptake at 2 h (in vivo; Muscle uptake): 0.21 ± 0.08 %ID/g
- tissue uptake at 0.5 h (in vivo; Pancreas uptake): 0.35 ± 0.01 %ID/g
- tissue uptake at 1 h (in vivo; Pancreas uptake): 0.16 ± 0.14 %ID/g
- tissue uptake at 2 h (in vivo; Pancreas uptake): 0.09 ± 0.06 %ID/g
- tissue uptake at 0.5 h (in vivo; Sexual gland uptake): 0.5 ± 0.12 %ID/g
- tissue uptake at 1 h (in vivo; Sexual gland uptake): 0.05 ± 0.03 %ID/g
- tissue uptake at 2 h (in vivo; Sexual gland uptake): 0.09 ± 0.02 %ID/g
- tissue uptake at 0.5 h (in vivo; Stomach uptake): 0.49 ± 0.31 %ID/g
- tissue uptake at 1 h (in vivo; Stomach uptake): 0.21 ± 0.19 %ID/g
- tissue uptake at 2 h (in vivo; Stomach uptake): 0.07 ± 0.02 %ID/g
- tissue uptake at 0.5 h (in vivo; Thyroid uptake): 0.88 ± 0.13 %ID/g
- tissue uptake at 1 h (in vivo; Thyroid uptake): 0.16 ± 0.07 %ID/g
- tissue uptake at 2 h (in vivo; Thyroid uptake): 0.3 ± 0.16 %ID/g
- tissue uptake at 0.5 h (in vivo; Tumor uptake): 1.2 ± 0.24 %ID/g
- tissue uptake at 1 h (in vivo; Tumor uptake): 0.75 ± 0.25 %ID/g
- tissue uptake at 2 h (in vivo; Tumor uptake): 0.27 ± 0.14 %ID/g
- change of tumor tissue uptake after pre-injection of excess C6 (SKOV3 tumor-bearing mice; SKOV3 tumor-bearing mice, C6 10 mg/kg pre-block versus non-blocked, 60 min PI, P < 0.05): marked reduction
- uptake ratio of tumor-to-blood (SKOV3 tumor-bearing mice; mouse, in vivo): > 2 fold
- tumor radioactivity concentration in PET (SKOV3 tumors; 30 and 60 min PI): visualized
- uptake of the tumors in PET (SKOV3 tumors; 120 min PI): negligible
- tumor detection via PET (PC3 tumors): detected
